Series [1] addresses T1, Smad4 MH1 domain (Homo sapiens, UniProt Q13485 10-140). In words: X-ray crystallography (3.03 A); Zn2+; EMSA: 20 mM Tris pH 7.2, 80 mM NaCl, 2 mM DTT, 7.5 nM Cy5-DNA, 30 min room temperature, gel at 20 C; ITC: Tris pH 7.0, 20 C. Conditions: protein: recombinant; tags: N-terminal His, cleaved (TEV or 3C); blunt, self-complementary. For orientation: A gel shift assay detects complexes by their altered migration in electrophoresis.

In series [2] the target is T1, Smad4 MH1 domain. In words: EMSA; EMSA: 20 mM Tris pH 7.2, 80 mM NaCl, 2 mM DTT, 7.5 nM Cy5-DNA, 30 min room temperature, gel at 20 C; ITC: Tris pH 7.0, 20 C. Conditions: protein: recombinant; tags: N-terminal His, cleaved (TEV or 3C); label: 5' Cy5; blunt.
Series [3] deals with T1, Smad4 MH1 domain. In words: X-ray crystallography (2.05 A); Zn2+; EMSA: 20 mM Tris pH 7.2, 80 mM NaCl, 2 mM DTT, 7.5 nM Cy5-DNA, 30 min room temperature, gel at 20 C; ITC: Tris pH 7.0, 20 C. Conditions: protein: recombinant; tags: N-terminal His, cleaved (TEV or 3C); blunt, self-complementary.
In series [4] the target is T1, Smad4 MH1 domain. In words: NMR; pH 6.3, 100 mM NaCl, 298 K; EMSA: 20 mM Tris pH 7.2, 80 mM NaCl, 2 mM DTT, 7.5 nM Cy5-DNA, 30 min room temperature, gel at 20 C; ITC: Tris pH 7.0, 20 C. The conditions noted are these: protein: recombinant; tags: N-terminal His, cleaved (TEV or 3C); blunt.
The target in series [5] is T1, Smad4 MH1 domain. In words: ITC; EMSA: 20 mM Tris pH 7.2, 80 mM NaCl, 2 mM DTT, 7.5 nM Cy5-DNA, 30 min room temperature, gel at 20 C; ITC: Tris pH 7.0, 20 C. The conditions noted are these: protein: recombinant, tags: N-terminal His, cleaved (TEV or 3C), blunt.
Series [6] has as its target T2, Smad3 MH1 domain (Homo sapiens, UniProt P84022 1-141). In words: EMSA; EMSA: 20 mM Tris pH 7.2, 80 mM NaCl, 2 mM DTT, 7.5 nM Cy5-DNA, 30 min room temperature, gel at 20 C; ITC: Tris pH 7.0, 20 C. Conditions: protein: recombinant; tags: N-terminal His-TEV, cleaved; label: 5' Cy5; blunt.
Series [7] deals with T1, Smad4 MH1 domain. In words: EMSA; no nanomolar binding; EMSA: 20 mM Tris pH 7.2, 80 mM NaCl, 2 mM DTT, 7.5 nM Cy5-DNA, 30 min room temperature, gel at 20 C; ITC: Tris pH 7.0, 20 C. The conditions noted are these: protein: recombinant; tags: N-terminal His, cleaved (TEV or 3C); label: 5' Cy5; blunt.
In series [8] the target is T2, Smad3 MH1 domain. In words: EMSA; text says GC1 oligonucleotide; EMSA: 20 mM Tris pH 7.2, 80 mM NaCl, 2 mM DTT, 7.5 nM Cy5-DNA, 30 min room temperature, gel at 20 C; ITC: Tris pH 7.0, 20 C. The conditions noted are these: protein: recombinant; tags: N-terminal His-TEV, cleaved; label: 5' Cy5; blunt.
The target in series [9] is T3, Trichoplax Smad4 MH1 domain (Trichoplax adhaerens, UniProt B3S7S5 1-151).
T3 sequence: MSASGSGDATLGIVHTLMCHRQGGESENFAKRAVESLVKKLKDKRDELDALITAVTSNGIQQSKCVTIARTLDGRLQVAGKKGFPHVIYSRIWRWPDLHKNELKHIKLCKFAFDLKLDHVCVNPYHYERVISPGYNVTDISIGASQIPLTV
In words: EMSA; EMSA: 20 mM Tris pH 7.2, 80 mM NaCl, 2 mM DTT, 7.5 nM Cy5-DNA, 30 min room temperature, gel at 20 C; ITC: Tris pH 7.0, 20 C. Conditions: protein: recombinant; tags: N-terminal His-TEV, cleaved; label: 5' Cy5; blunt.

Series [10] concerns the target T1, Smad4 MH1 domain. In words: NMR; 1 equivalent DNA; pH 6.3, 100 mM NaCl, 298 K; EMSA: 20 mM Tris pH 7.2, 80 mM NaCl, 2 mM DTT, 7.5 nM Cy5-DNA, 30 min room temperature, gel at 20 C; ITC: Tris pH 7.0, 20 C. Conditions: protein: recombinant; tags: N-terminal His, cleaved (TEV or 3C); blunt.

A word on the Kd: it is the concentration at which binding is half-saturated.

T1 sequence (Q13485 10-140): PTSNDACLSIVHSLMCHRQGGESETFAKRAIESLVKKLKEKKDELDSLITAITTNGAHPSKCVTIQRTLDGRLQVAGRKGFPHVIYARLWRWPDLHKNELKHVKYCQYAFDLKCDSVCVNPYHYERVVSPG
T2 sequence (P84022 1-141): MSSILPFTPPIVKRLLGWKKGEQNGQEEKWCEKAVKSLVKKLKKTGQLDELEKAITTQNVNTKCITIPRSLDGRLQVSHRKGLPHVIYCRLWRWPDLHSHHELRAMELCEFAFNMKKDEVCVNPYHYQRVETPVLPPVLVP

B1: GGCCG-XRAY (dsDNA)
DNA 1: ACGGGCCGCGGCCCGT
DNA 2: ACGGGCCGCGGCCCGT
Consider B1, for which the binding result in the series with Smad4 MH1 domain [1] is “binds”.

B2: -GGCCGC- (dsDNA)
DNA 1: ATTAGGCCGCAAAAAAAGCA
DNA 2: TGCTTTTTTTGCGGCCTAAT
B2: the binding result in the series with Smad4 MH1 domain [2] is “binds”.

B3: GGCGC-XRAY-Smad4 18mer (dsDNA)
DNA 1: ATGCGGGCGCGCCCGCAT
DNA 2: ATGCGGGCGCGCCCGCAT
Consider B3, for which, in the series with Smad4 MH1 domain [3], the binding result was “binds”.

B4: NMR GGCTGCC duplex (dsDNA)
DNA 1: AGCCGGCTGCC
DNA 2: GGCAGCCGGCT
Consider B4, for which the binding result with Smad4 MH1 domain [4] is recorded as “binds”.

B5: CAGAC (ITC) (dsDNA)
DNA 1: AGTCAGACGCT
DNA 2: AGCGTCTGACT
For the molecule B5, in the series with Smad4 MH1 domain [5], the Kd was found to be 0.2705 ± 0.0001 µM.

B6: -GGCTGCC- (dsDNA)
DNA 1: GTAACCGGCTGCCGAATG
DNA 2: CATTCGGCAGCCGGTTAC
For B6, the binding result in the series with Smad3 MH1 domain [6] and in the series with Smad4 MH1 domain [2] was “binds” each time.

B7: SBE / GTCT (dsDNA)
DNA 1: TGCAGTCTAGACTGCA
DNA 2: TGCAGTCTAGACTGCA
Take B7: in the series with Smad4 MH1 domain [5] (label: 5' Cy5 in EMSA, self-complementary), the Kd was 0.2003 ± 0.0005 µM.

B8: FoxH1 site (dsDNA)
DNA 1: TCTCAATCCACAATC
DNA 2: GATTGTGGATTGAGA
For B8, the binding result with Smad4 MH1 domain [7] is recorded as “no binding”.

B9: -GGCCGG- (dsDNA)
DNA 1: ATTATTGGCCGGAAAGCA
DNA 2: TGCTTTCCGGCCAATAAT
On to B9, for which the binding result in the series with Smad4 MH1 domain [2] is on record as “binds”.

B10: GC1 core (dsDNA)
DNA 1: TTAAGGCCGGGGCCGCGCCGGGAATT
DNA 2: AATTCCCGGCGCGGCCCCGGCCTTAA
As to B10, in the series with Smad3 MH1 domain [8], the Kd was approximately 0.1 µM. Moreover, the binding result in [9] is listed as “binds”.

B11: GGCT 16mer (dsDNA)
DNA 1: TGCAGGCTAGCCTGCA
DNA 2: TGCAGGCTAGCCTGCA
As to B11, the Kd with Smad4 MH1 domain [5] (self-complementary) is 0.2505 ± 0.0008 µM.

B12: NMR GGCCGCGCC duplex (dsDNA)
DNA 1: AGGCCGCGCCGA
DNA 2: TCGGCGCGGCCT
B12: in the series with Smad4 MH1 domain [10], the binding result is reported as “binds”.

B13: GC2_14 (CCTGGGC) (dsDNA)
DNA 1: AACCTGGGCAATTA
DNA 2: TAATTGCCCAGGTT
B13: the binding result in the series with Smad4 MH1 domain [7] is “no binding”.

The record behind these values is publication PMC5727232, “Structural basis for genome wide recognition of 5-bp GC motifs by SMAD transcription factors”.
